Key:
[1] = molecular target: nucleosome core particle: Cse4, H2A, H2B, H4 histone octamer wrapped with Widom 601 DNA (S. cerevisiae | K. lactis) (UniProt P36012); experiment: optical trap bead-microtubule binding assay; His6-NCPs (40 nM) held on polystyrene beads by anti-His6 antibody; 10 nM OA or 20 nM Mif2, 10 nM 2D-MIND, 10 nM Ndc80c, 5 nM Dam1c free in solution; bead brought to the dynamic plus end of a surface-anchored microtubule and released from the trap; 1x BRB80, 1 mM GTP, 16 uM tubulin, room temperature
[2] = molecular target: nucleosome core particle: Cse4, H2A, H2B, H4 histone octamer wrapped with chimeric centromeric DNA (CCEN) (S. cerevisiae | K. lactis) (UniProt P36012); experiment: as above

percent of beads that bound microtubules [1]: > 78%
percent of beads that bound microtubules [2]: > 78%
Substance: Mif2-linker-(27-392)MBP (from UniProt P35201 1-549) (natural protein)
